Results as given in the supplement of paper PMC10724198.
± gives the standard deviation of the averaged measurements.
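Further: PSI is a weighted mean of sequencing reads over stability bins, variants kept only with over 10 reads, mCherry proximal and sfGFP distal, peptide attached via GGGS linker.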

Each sequence was assayed on Saccharomyces cerevisiae (assay: protein stability index of tFT-peptide fusion (C-terminal peptide) (PSI (0-1 scale)); higher = more stable (slower turnover)). Conditions: genetic background: wild type; temperature: 30 C.
VGGAAVVAGGGV gave a protein stability index of 0.695 ± 0.031.
Sequence VGGACGLSGGLV has a protein stability index of 0.652 ± 0.062.
For VGGAVGAGGGGG, the protein stability index was 0.649 ± 0.032.
With VGGAVVWVGLVR the protein stability index was 0.55 ± 0.031.
VGGEGGLGVRPR showed a protein stability index of 0.662 ± 0.033.
In the case of VGGEGVGVGGEV, the protein stability index is reported as 0.616 ± 0.018.
With VGGFVRGRVWCS the protein stability index was 0.696 ± 0.012.
VGGGFSSVVWLW showed a protein stability index of 0.658 ± 0.043.
Work on VGGGGGVSLGGR yielded a protein stability index of 0.655 ± 0.087.
Sequence VGGLAFSTSSIW has a protein stability index of 0.809 ± 0.11.
Sequence VGGMGAEGRGGK has a protein stability index of 0.721 ± 0.009.
VGGRGLVWVWGG was tested, and the protein stability index was 0.631 ± 0.059.
VGGSERVWVKSL showed a protein stability index of 0.537 ± 0.043.
VGGVWVDVMGFC showed a protein stability index of 0.793 ± 0.16.
In the case of VGILHCELVDVS, the protein stability index is reported as 0.735 ± 0.17.
With VGIPKEADKGGF the protein stability index was 0.704 ± 0.035.
VGLGVLWVMGKV gave a protein stability index of 0.667 ± 0.082.
For VGLTNSHTHVRR, the protein stability index was 0.767 ± 0.019.
For VGNSLRCRGGWR, the protein stability index was 0.628 ± 0.069.
Work on VGPFSSSRIGTS yielded a protein stability index of 0.6003 ± 0.0019.
In the case of VGPGVLVLGVGA, the protein stability index is reported as 0.68 ± 0.035.
With VGPRFAYLDVAA the protein stability index was 0.5644 ± 0.0031.
Work on VGPSGLIRCSFC yielded a protein stability index of 0.712 ± 0.029.
VGRAGMPGSAES was tested, and the protein stability index was 0.66 ± 0.022.
Work on VGRARRKGGGVG yielded a protein stability index of 0.6384 ± 0.0024.
For VGRGWSSGGGGD, the protein stability index was 0.682 ± 0.023.
VGRSRNGAQSNR was tested, and the protein stability index was 0.65 ± 0.015.
VGSAENQHTGRM showed a protein stability index of 0.678 ± 0.018.
VGSSRWRHVGRR gave a protein stability index of 0.6742 ± 0.0063.
VGSVWGDCLGYL gave a protein stability index of 0.701 ± 0.049.
With VGTPPSEVGVLA the protein stability index was 0.628 ± 0.035.
Work on VGVLLGPVWFSV yielded a protein stability index of 0.684 ± 0.042.
With VGVPAGQRRLAS the protein stability index was 0.718 ± 0.089.
Sequence VGVRCCPRLRFG has a protein stability index of 0.695 ± 0.061.
VGVSEVGRGWAT gave a protein stability index of 0.71 ± 0.062.
In the case of VGVSFSFGSIFL, the protein stability index is reported as 0.687 ± 0.022.
VGVWAGVVLLGG gave a protein stability index of 0.825 ± 0.18.
VGWQGRWWLWGG gave a protein stability index of 0.568 ± 0.03.
VGWSWTSWTKGD gave a protein stability index of 0.661 ± 0.021.
VHAGVLTMADPT was tested, and the protein stability index was 0.653 ± 0.05.
In the case of VHIVTLGGVLSF, the protein stability index is reported as 0.608 ± 0.0074.
Sequence VHRRRVSVGGGV has a protein stability index of 0.69044 ± 0.00032.
Work on VIACTFLSCSFS yielded a protein stability index of 0.531 ± 0.02.
Sequence VIGEWWPVSGQH has a protein stability index of 0.718 ± 0.014.
For VIISDPNKDTRL, the protein stability index was 0.645 ± 0.066.
For VILTAISPAFSV, the protein stability index was 0.647 ± 0.013.
VIQCIGANGAII was tested, and the protein stability index was 0.645 ± 0.052.
VIRQVKFDRKCS was tested, and the protein stability index was 0.681 ± 0.068.
Sequence VISKIAIKAKER has a protein stability index of 0.665 ± 0.047.
VKIYPSHGKVRD showed a protein stability index of 0.6901 ± 0.00096.
VKKVSSVGGREG was tested, and the protein stability index was 0.643 ± 0.1.
Sequence VKLEEKNTINKV has a protein stability index of 0.668 ± 0.1.
In the case of VKSGSTALRVNS, the protein stability index is reported as 0.607 ± 0.051.
With VKSQRISVMIKK the protein stability index was 0.689 ± 0.022.
Sequence VLCCFLFGFLLV has a protein stability index of 0.576 ± 0.011.
VLDFRGELGLLG was tested, and the protein stability index was 0.699 ± 0.025.
VLEVLKTGKKIM gave a protein stability index of 0.692 ± 0.032.
With VLGGRWDGVGGV the protein stability index was 0.661 ± 0.064.
In the case of VLGLGVVACWAV, the protein stability index is reported as 0.569 ± 0.013.
For VLGRRGLVWKRV, the protein stability index was 0.5993 ± 0.0033.
VLHFIFLCRCPV showed a protein stability index of 0.497 ± 0.011.
For VLICGLNYLSLC, the protein stability index was 0.64 ± 0.022.
In the case of VLIEWKGSREKY, the protein stability index is reported as 0.824 ± 0.21.
VLIRRLPFTSYL gave a protein stability index of 0.6365 ± 0.0034.
Sequence VLKGIVKQTRRG has a protein stability index of 0.685 ± 0.058.
Sequence VLKRYILRNEKD has a protein stability index of 0.697 ± 0.027.
In the case of VLLARVRRSSDS, the protein stability index is reported as 0.649 ± 0.093.
Work on VLLGFSDYLRVT yielded a protein stability index of 0.698 ± 0.079.
VLLGTVRCCFLG was tested, and the protein stability index was 0.556 ± 0.022.
For VLLLRPTPPLFH, the protein stability index was 0.663 ± 0.046.
For VLLLSRPLFPFS, the protein stability index was 0.669 ± 0.031.
For VLLMRSARTAGA, the protein stability index was 0.69 ± 0.021.
VLLRKLLCPGYV gave a protein stability index of 0.598 ± 0.016.
For VLLRRRASSISG, the protein stability index was 0.671 ± 0.043.
For VLPHFSLSTPSP, the protein stability index was 0.7493 ± 0.0052.
VLQEFTFPKVGL gave a protein stability index of 0.675 ± 0.015.
In the case of VLSGPQVVWSES, the protein stability index is reported as 0.679 ± 0.017.
For VLSLLGVLFCLF, the protein stability index was 0.634 ± 0.028.
For VLSPVFLISLFS, the protein stability index was 0.552 ± 0.016.
VLTSLVRGVFTG was tested, and the protein stability index was 0.632 ± 0.069.
VLVSVSVPLRGR was tested, and the protein stability index was 0.78 ± 0.1.
Sequence VLWIWRGFRGLG has a protein stability index of 0.626 ± 0.011.
VMAVARIEVKMR gave a protein stability index of 0.587 ± 0.024.
VMGYCNWCVIRQ showed a protein stability index of 0.694 ± 0.054.
Work on VMWNLVCLRRSQ yielded a protein stability index of 0.6271 ± 0.0012.
With VNEEGCDILVRT the protein stability index was 0.757 ± 0.013.
In the case of VNPAFRTSICHH, the protein stability index is reported as 0.584 ± 0.12.
For VNTISRKIPPIA, the protein stability index was 0.648 ± 0.041.
VNVSLFWFGTYL was tested, and the protein stability index was 0.61 ± 0.054.
With VPEVRRTDGRVR the protein stability index was 0.74 ± 0.014.
For VPFGPLRPALYL, the protein stability index was 0.708 ± 0.018.
VPGASSSLSSSP showed a protein stability index of 0.667 ± 0.077.
In the case of VPLPGAAGATLL, the protein stability index is reported as 0.773 ± 0.091.
Work on VPLPLVPCARIY yielded a protein stability index of 0.627 ± 0.0093.
VPLYVDLYLSGA showed a protein stability index of 0.721 ± 0.043.
Work on VPNTFVGVLICP yielded a protein stability index of 0.607 ± 0.026.
VPPFGPTPLASI showed a protein stability index of 0.797 ± 0.073.
VPPHLLLSLSPP showed a protein stability index of 0.635 ± 0.02.
Sequence VPPRPPLPPRPP has a protein stability index of 0.625 ± 0.027.
Sequence VPPSYDLPLFPF has a protein stability index of 0.632 ± 0.013.
VPSAFLYLVGSL showed a protein stability index of 0.591 ± 0.01.
In the case of VPSANAQTPSTC, the protein stability index is reported as 0.717 ± 0.071.
Sequence VPSGVWGVLGFA has a protein stability index of 0.667 ± 0.048.
VPSPFIPVSPTL was tested, and the protein stability index was 0.669 ± 0.012.
Work on VPSSCFLLDLPP yielded a protein stability index of 0.648 ± 0.047.
VPSSVLIPRPLF was tested, and the protein stability index was 0.72 ± 0.081.
VPVITLGSRISG showed a protein stability index of 0.658 ± 0.0088.
VQDFTFLLPLAP showed a protein stability index of 0.692 ± 0.17.
VQSSLSDFYVSS showed a protein stability index of 0.707 ± 0.061.
For VQSVDVLLISSL, the protein stability index was 0.642 ± 0.032.
With VQSWGGRGMVVW the protein stability index was 0.719 ± 0.036.
In the case of VQTHPFWFPTLL, the protein stability index is reported as 0.573 ± 0.07.
VRARSTSCGIWC gave a protein stability index of 0.692 ± 0.045.
VRARTAFVPLPA gave a protein stability index of 0.727 ± 0.097.
In the case of VRATSMWRSRGR, the protein stability index is reported as 0.688 ± 0.053.
For VRDLDMEEISRY, the protein stability index was 0.727 ± 0.05.
Sequence VRDLGSPFIVYR has a protein stability index of 0.64 ± 0.059.
VRGLGFVSWFFL was tested, and the protein stability index was 0.651 ± 0.025.
Sequence VRGRVGYFIVRK has a protein stability index of 0.642 ± 0.044.
VRGSLGQGNDTA showed a protein stability index of 0.706 ± 0.03.
In the case of VRINNIGKRVNR, the protein stability index is reported as 0.706 ± 0.025.
With VRKGSERKKAGN the protein stability index was 0.6686 ± 0.0043.
For VRPQHIITSGSC, the protein stability index was 0.739 ± 0.15.
In the case of VRRGGGVGGYGI, the protein stability index is reported as 0.734 ± 0.084.
VRRRANVRVLRD gave a protein stability index of 0.688 ± 0.077.
In the case of VRRRKLAKCEVN, the protein stability index is reported as 0.474 ± 0.058.
VRRTRGGLRGWS showed a protein stability index of 0.6987 ± 0.0053.
VRRWAVSSAFVG showed a protein stability index of 0.628 ± 0.054.
VRWTVAWAVGAT showed a protein stability index of 0.689 ± 0.12.
Work on VRYGQRGTFGLL yielded a protein stability index of 0.6901 ± 0.0019.
VSAPLGRFSGLV was tested, and the protein stability index was 0.685 ± 0.036.
Work on VSDMILSATFCM yielded a protein stability index of 0.643 ± 0.042.
With VSDVIPRSRCVR the protein stability index was 0.6884 ± 0.0024.
Sequence VSGCVCAAADVL has a protein stability index of 0.696 ± 0.027.
VSGCVMIYGRTV was tested, and the protein stability index was 0.724 ± 0.027.
Work on VSGSVVLHTVIP yielded a protein stability index of 0.658 ± 0.017.
In the case of VSGVLPGALFPL, the protein stability index is reported as 0.684 ± 0.053.
Sequence VSGYGSSQDDVR has a protein stability index of 0.6397 ± 0.0056.
Work on VSIGGLLGCVLF yielded a protein stability index of 0.692 ± 0.048.
VSMSACSPGGMS gave a protein stability index of 0.646 ± 0.02.
For VSNKWATANKYG, the protein stability index was 0.644 ± 0.051.
In the case of VSPGLFRSPPHY, the protein stability index is reported as 0.664 ± 0.011.
Work on VSPLPSPVPLLP yielded a protein stability index of 0.69 ± 0.076.
VSPNSFVGRPCF was tested, and the protein stability index was 0.717 ± 0.072.
VSPSPIPSMPVI showed a protein stability index of 0.71 ± 0.078.
Sequence VSREWNVSIDVF has a protein stability index of 0.495 ± 0.027.
VSRGGMSGIVCL showed a protein stability index of 0.773 ± 0.11.
VSRGIFSGRGGV gave a protein stability index of 0.736 ± 0.018.
Work on VSSCLHDYSAIY yielded a protein stability index of 0.744 ± 0.029.
VSSTFGQDTSKR showed a protein stability index of 0.715 ± 0.024.
Sequence VSVVVGLLFVGF has a protein stability index of 0.5 ± 0.065.
VSWLSTKCWTIL gave a protein stability index of 0.563 ± 0.038.
VSYLLPPPPPPP gave a protein stability index of 0.682 ± 0.046.
VTGDRGGVRGGE showed a protein stability index of 0.685 ± 0.012.
Sequence VTHNTLLRTKVV has a protein stability index of 0.518 ± 0.0069.
VTLRLCGQSVVV gave a protein stability index of 0.585 ± 0.0085.
Work on VTLWQLANNTLG yielded a protein stability index of 0.626 ± 0.028.
Work on VTNVTSETRVLT yielded a protein stability index of 0.6816 ± 0.0013.
VTPLPHPPLPPP was tested, and the protein stability index was 0.756 ± 0.089.
With VTPPGFTYVLEV the protein stability index was 0.619 ± 0.058.
